Test results published in paper PMC2849744.

Target: ANF-RGC 669WTAPELL675 deletion mutant (UniProt P18910)
Assay: radioligand binding

UniProt P18910, sequence (P18910 29-1057, stated change not applied): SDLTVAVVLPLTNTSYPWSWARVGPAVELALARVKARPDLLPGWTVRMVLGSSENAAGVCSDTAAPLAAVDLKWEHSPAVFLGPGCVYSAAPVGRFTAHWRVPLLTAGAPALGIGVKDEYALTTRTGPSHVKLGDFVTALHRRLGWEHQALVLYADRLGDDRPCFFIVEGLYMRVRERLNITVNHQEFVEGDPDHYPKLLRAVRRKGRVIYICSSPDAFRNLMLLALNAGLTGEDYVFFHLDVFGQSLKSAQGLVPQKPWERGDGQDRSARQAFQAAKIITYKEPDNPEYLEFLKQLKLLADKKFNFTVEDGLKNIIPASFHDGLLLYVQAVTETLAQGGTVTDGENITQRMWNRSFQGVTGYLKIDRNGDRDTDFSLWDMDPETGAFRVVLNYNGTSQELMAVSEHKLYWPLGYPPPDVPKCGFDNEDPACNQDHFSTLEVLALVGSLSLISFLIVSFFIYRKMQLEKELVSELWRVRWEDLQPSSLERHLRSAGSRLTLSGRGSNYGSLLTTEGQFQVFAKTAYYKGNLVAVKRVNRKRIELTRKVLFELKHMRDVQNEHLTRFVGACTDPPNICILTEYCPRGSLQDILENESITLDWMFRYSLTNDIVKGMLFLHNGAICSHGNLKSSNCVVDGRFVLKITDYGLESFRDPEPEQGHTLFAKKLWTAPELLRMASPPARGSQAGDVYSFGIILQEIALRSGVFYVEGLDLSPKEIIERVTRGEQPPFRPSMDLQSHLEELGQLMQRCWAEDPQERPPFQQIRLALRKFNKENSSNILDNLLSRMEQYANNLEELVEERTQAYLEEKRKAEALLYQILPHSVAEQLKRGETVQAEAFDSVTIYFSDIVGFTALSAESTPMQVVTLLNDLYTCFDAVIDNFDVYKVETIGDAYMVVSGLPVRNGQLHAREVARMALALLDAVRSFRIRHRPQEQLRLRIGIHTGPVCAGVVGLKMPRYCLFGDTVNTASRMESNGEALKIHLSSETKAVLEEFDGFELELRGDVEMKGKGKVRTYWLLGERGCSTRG

specific binding (pmol [125I]ANF/mg protein): 10.1
Substance: atrial natriuretic factor (ANF) (peptide)
